{"source": "paper PMC3629208", "about": "“Effective Identification of Akt Interacting Proteins by Two-Step Chemical Crosslinking, Co-Immunoprecipitation and Mass Spectrometry” (PLoS ONE, 2013)", "binders": {"B1": {"name": "ErbB3 binding protein 1 (EBP1, also called proliferation-associated protein 2G4) (natural protein, mouse (endogenous in Neuro 2A), UniProt P50580 1-394, looked up)", "chain": "MSGEDEQQEQTIAEDLVVTKYKMGGDIANRVLRSLVEASSSGVSVLSLCEKGDAMIMEETGKIFKKEKEMKKGIAFPTSISVNNCVCHFSPLKSDQDYILKEGDLVKIDLGVHVDGFIANVAHTFVIGVAQGTQVTGRKADVIKAAHLCAEAALRLVKPGNQNTQVTEAWNKVAHSFNCTPIEGMLSHQLKQHVIDGEKTIIQNPTDQQKKDHEKAEFEVHEVYAVDVLVSSGEGKAKDAGQRTTIYKRDPSKQYGLKMKTSRAFFSEVERRFDAMPFTLRAFEDEKKARMGVVECAKHELLQPFNVLYEKEGEFVAQFKFTVLLMPNGPMRITSGPFEPDLYKSEMEVQDAELKALLQSSASRKTQKKKKKKASKTVENATSGETLEENGAGD", "notes": "EBP1 (proliferation-associated protein 2G4), mouse, endogenous; gi 116283229, 42 kDa; source: endogenous, Neuro 2A lysate"}, "B2": {"name": "glycogen synthase kinase (GSK)-3β (enzyme, mouse (endogenous in Neuro 2A), UniProt Q9WV60 1-420, looked up)", "chain": "MSGRPRTTSFAESCKPVQQPSAFGSMKVSRDKDGSKVTTVVATPGQGPDRPQEVSYTDTKVIGNGSFGVVYQAKLCDSGELVAIKKVLQDKRFKNRELQIMRKLDHCNIVRLRYFFYSSGEKKDEVYLNLVLDYVPETVYRVARHYSRAKQTLPVIYVKLYMYQLFRSLAYIHSFGICHRDIKPQNLLLDPDTAVLKLCDFGSAKQLVRGEPNVSYICSRYYRAPELIFGATDYTSSIDVWSAGCVLAELLLGQPIFPGDSGVDQLVEIIKVLGTPTREQIREMNPNYTEFKFPQIKAHPWTKVFRPRTPPEAIALCSRLLEYTPTARLTPLEACAHSFFDELRDPNVKLPNGRDTPALFNFTTQELSSNPPLATILIPPHARIQAAASPPANATAASDTNAGDRGQTNNAASASASNST", "notes": "glycogen synthase kinase-3 beta, mouse, endogenous; gi 9790077, 47 kDa; source: endogenous, Neuro 2A lysate"}, "B3": {"name": "nuclear distribution gene C (Nudc, also named nuclear migration gene C) (natural protein)", "chain": "not shown", "notes": "nuclear migration protein nudC, mouse, endogenous; gi 6754910, 38 kDa; source: endogenous, Neuro 2A lysate"}, "B4": {"name": "extracellular regulated kinase-1 and -2 (ERK1/2) (natural protein, mouse (endogenous in Neuro 2A), UniProt P63085 1-358, looked up)", "chain": "MAAAAAAGPEMVRGQVFDVGPRYTNLSYIGEGAYGMVCSAYDNLNKVRVAIKKISPFEHQTYCQRTLREIKILLRFRHENIIGINDIIRAPTIEQMKDVYIVQDLMETDLYKLLKTQHLSNDHICYFLYQILRGLKYIHSANVLHRDLKPSNLLLNTTCDLKICDFGLARVADPDHDHTGFLTEYVATRWYRAPEIMLNSKGYTKSIDIWSVGCILAEMLSNRPIFPGKHYLDQLNHILGILGSPSQEDLNCIINLKARNYLLSLPHKNKVPWNRLFPNADSKALDLLDKMLTFNPHKRIEVEQALAHPYLEQYYDPSDEPIAEAPFKFDMELDDLPKEKLKELIFEETARFQPGYRS", "notes": "ERK1/2, mouse, endogenous; the MS entry is a single 42 kDa protein; source: endogenous, Neuro 2A lysate"}}, "target": "T1, Akt (protein kinase B), Akt1 (mouse (endogenous in Neuro 2A), UniProt P31750 1-480)", "T1 construct": "Akt1, mouse, endogenous in Neuro 2A cells, captured by a rabbit anti-Akt antibody; MS peptide assigned to Akt1 (gi/6753034); Bait of all co-IPs; The anti-Akt antibody may also capture other Akt isoforms; Cells were unstimulated or IGF-1 stimulated (phospho-T308 as the mark of active Akt); source: endogenous, Neuro 2A lysate", "T1 sequence (P31750 whole entry, canonical isoform)": "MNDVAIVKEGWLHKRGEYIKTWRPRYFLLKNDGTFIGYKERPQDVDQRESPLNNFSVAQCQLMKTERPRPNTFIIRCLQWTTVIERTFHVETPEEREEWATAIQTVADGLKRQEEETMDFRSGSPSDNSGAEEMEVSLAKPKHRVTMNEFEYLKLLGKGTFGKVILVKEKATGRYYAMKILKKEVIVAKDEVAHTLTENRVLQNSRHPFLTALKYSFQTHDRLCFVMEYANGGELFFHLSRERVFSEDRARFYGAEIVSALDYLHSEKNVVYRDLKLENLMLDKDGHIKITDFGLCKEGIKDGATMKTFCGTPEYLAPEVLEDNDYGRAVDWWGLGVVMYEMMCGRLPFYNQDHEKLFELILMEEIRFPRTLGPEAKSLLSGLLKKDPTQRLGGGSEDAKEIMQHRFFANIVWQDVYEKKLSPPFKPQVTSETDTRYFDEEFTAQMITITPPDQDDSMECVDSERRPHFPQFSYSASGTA", "assay": "co-IP; two-step crosslinking co-IP (DSS-fixed anti-Akt antibody, DSP-crosslinking of the bound complexes) from Neuro 2A lysate, western blot; cells with or without IGF-1 (10 ng/mL, 10 min); band intensity normalized to Akt level", "details": "partners not purified", "data": [{"binder": "B1", "values": [{"measurement": "fold increase of association, IGF-stimulated (active Akt) against unstimulated, normalized to Akt level", "value": 2.4, "unit": "fold"}]}, {"binder": "B2", "values": [{"measurement": "fold increase of association, IGF-stimulated (active Akt) against unstimulated, normalized to Akt level", "value": 1.8, "unit": "fold"}]}, {"binder": "B3", "values": [{"measurement": "fold change of association, IGF-stimulated against unstimulated, normalized to Akt level", "value": "0.97 ± 0.1", "unit": "fold"}]}, {"binder": "B4", "values": [{"measurement": "fold change of association, IGF-stimulated against unstimulated, normalized to Akt level", "value": 0.98, "unit": "fold"}, {"measurement": "fold increase of co-precipitated ERK1/2 with DSP-crosslinking against without, normalized to Akt level", "value": "2.5 ± 0.2", "unit": "fold"}]}]}
